Measured values published in US20240270821A1, “GIP/GLP1/GCG TRI-RECEPTOR AGONISTS AND USES THEREOF” (priority 2023, published 2024).

Key:
Test in all cases: cell-based or functional assay
hGLP-1R = hGLP-1R (Homo sapiens, UniProt P43220)
[1] = molecular target: human glucagon receptor (human) (UniProt P47871)
[2] = molecular target: T1, human GIP receptor (human) (UniProt P48546)
T1 sequence (looked up): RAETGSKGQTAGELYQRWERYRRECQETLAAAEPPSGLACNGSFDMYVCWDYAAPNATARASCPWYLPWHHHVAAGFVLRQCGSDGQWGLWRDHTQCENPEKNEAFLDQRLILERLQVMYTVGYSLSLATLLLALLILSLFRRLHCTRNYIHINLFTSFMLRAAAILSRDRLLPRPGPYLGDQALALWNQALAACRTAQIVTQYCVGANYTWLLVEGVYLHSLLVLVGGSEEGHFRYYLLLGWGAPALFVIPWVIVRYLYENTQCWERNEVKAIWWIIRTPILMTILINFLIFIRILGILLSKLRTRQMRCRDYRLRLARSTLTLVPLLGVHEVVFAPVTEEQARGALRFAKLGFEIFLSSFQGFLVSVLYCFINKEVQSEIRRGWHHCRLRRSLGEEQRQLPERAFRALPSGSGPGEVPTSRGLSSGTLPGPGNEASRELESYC

Chain of hGLP-1R (P43220 24-463): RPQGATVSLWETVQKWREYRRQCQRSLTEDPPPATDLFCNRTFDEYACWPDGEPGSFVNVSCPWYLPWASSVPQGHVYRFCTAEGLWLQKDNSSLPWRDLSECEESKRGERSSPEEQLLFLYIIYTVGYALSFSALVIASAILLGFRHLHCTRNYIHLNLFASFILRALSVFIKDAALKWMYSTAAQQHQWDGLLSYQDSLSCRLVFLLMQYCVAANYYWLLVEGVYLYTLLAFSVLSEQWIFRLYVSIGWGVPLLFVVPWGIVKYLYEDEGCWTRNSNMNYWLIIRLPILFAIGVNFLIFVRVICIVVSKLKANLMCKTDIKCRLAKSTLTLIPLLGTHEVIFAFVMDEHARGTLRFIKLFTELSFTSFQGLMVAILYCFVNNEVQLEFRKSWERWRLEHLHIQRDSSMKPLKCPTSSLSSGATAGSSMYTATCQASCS
Chain of human glucagon receptor (human) (P47871 26-477): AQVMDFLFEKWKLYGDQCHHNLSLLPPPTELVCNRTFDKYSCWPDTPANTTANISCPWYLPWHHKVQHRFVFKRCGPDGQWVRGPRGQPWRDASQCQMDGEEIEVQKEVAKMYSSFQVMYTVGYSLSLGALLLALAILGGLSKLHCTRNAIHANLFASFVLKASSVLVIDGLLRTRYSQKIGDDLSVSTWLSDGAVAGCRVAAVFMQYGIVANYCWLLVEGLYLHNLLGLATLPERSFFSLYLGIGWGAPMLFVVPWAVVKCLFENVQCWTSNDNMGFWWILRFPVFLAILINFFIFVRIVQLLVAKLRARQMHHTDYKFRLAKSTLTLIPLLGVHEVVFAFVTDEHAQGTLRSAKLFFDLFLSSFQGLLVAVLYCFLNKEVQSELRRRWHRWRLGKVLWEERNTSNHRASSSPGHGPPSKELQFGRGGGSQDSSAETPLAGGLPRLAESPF

Binder	Relative cAMP EC50 (hGLP-1R) [nM]	cAMP Rel EC50, nM (in the presence of 1% HSA) (hGLP-1R) [nM]	Relative cAMP EC50 [1] [nM]	cAMP Rel EC50, nM (in the presence of 1% HSA) [1] [nM]	Relative cAMP EC50 [2] [nM]	cAMP Rel EC50, nM (in the presence of 1% HSA) [2] [nM]	cAMP Rel EC50 (in the presence of 1% HSA) (hGLP-1R) [nM]	cAMP Rel EC50 (in the presence of 1% HSA) [1] [nM]	cAMP Rel EC50 (in the presence of 1% HSA) [2] [nM]	Relative cAMP EC50, nM (0.1% casein) (hGLP-1R) [nM]	cAMP Rel EC50, nM (1% HSA) (hGLP-1R) [nM]	Relative cAMP EC50, nM (0.1% casein) [1] [nM]	cAMP Rel EC50, nM (1% HSA) [1] [nM]	Relative cAMP EC50, nM (0.1% casein) [2] [nM]	cAMP Rel EC50, nM (1% HSA) [2] [nM]
YXQGTFTSDFSXXLDKKAQXAFIEWLLEGGESSGEPPPSGE (synthetic construct; SITE 2: note = 2-Aminoisobutyric Acid; SITE 12: note = L-ornithine; SITE 13: note = alpha-methyl-leucine; SITE 17: note = Lysine is chemically modified through conjugation of the epsilon-amino group of the Lysine side chain with (2-[2-(2-Amino-ethoxy)-ethoxy]-acetyl)-(gamma-Glu)) [Example 123]	4.82	1500	4.55	1740	0.531	94.6									
YXQGTFTSDFSXXLDKKAQXAFIEWLLEGGHSSGEPPPEGS (synthetic construct; SITE 2: note = 2-Aminoisobutyric Acid; SITE 12: note = L-ornithine; SITE 13: note = alpha-methyl-leucine; SITE 17: note = Lysine is chemically modified through conjugation of the epsilon-amino group of the Lysine side chain with (2-[2-(2-Amino-ethoxy)-ethoxy]-acetyl)-(gamma-Glu)) [Example 127]	4.8	1000	4.35	1010	0.312	62.9									
YXQGTFTSDFSXXLDKKAQXAFIEWLLEGGHSSGEPPPSGE (synthetic construct; SITE 2: note = 2-Aminoisobutyric Acid; SITE 12: note = L-ornithine; SITE 13: note = alpha-methyl-leucine; SITE 17: note = Lysine is chemically modified through conjugation of the epsilon-amino group of the Lysine side chain with (2-[2-(2-Amino-ethoxy)-ethoxy]-acetyl)-(gamma-Glu)) [Example 124]	6.14	801	2.92	567	0.344	54.7									
YXQGTFTSDFSKXLDKKAQXAFIEYLLAGGPSSGAPPPSGS (synthetic construct; SITE 2: note = 2-Aminoisobutyric Acid; SITE 13: note = alpha-methyl-leucine; SITE 17: note = Lysine is chemically modified through conjugation of the epsilon-amino group of the Lysine side chain with (2-[2-(2-Amino-ethoxy)-ethoxy]-acetyl)-(gamma-Glu)-CO-(CH2) 18-CO2H; SITE 20: n) [Example 14]	1.67		7.23		0.17		232	1420	34.7						
YXQGTFTSDFSKXLDKKAQXAFIQYLLAGGPSSGEPPPSEG (synthetic construct; SITE 2: note = 2-Aminoisobutyric Acid; SITE 13: note = alpha-methyl-leucine; SITE 17: note = Lysine is chemically modified through conjugation of the epsilon-amino group of the Lysine side chain with (2-[2-(2-Amino-ethoxy)-ethoxy]-acetyl)-(gamma-Glu)-CO-(CH2) 18-CO2H; SITE 20: n) [Example 27]	2.33		8.91		0.41		464	1180	72.3						
YXQGTFTSDFSXXLDKKAQXAFIEYLLAGGPSSGEPPPSGS (synthetic construct; SITE 2: note = 2-Aminoisobutyric Acid; SITE 12: note = L-ornithine; SITE 13: note = alpha-methyl-leucine; SITE 17: note = Lysine is chemically modified through conjugation of the epsilon-amino group of the Lysine side chain with (2-[2-(2-Amino-ethoxy)-ethoxy]-acetyl)-(gamma-Glu)) [Example 153]										7.09	488	14.7	1210	0.218	16.8
YXQGTFTSDFSXXLDKKAQXAFIEYLLEAGPSSGEPPPSGT (synthetic construct; SITE 2: note = 2-Aminoisobutyric Acid; SITE 12: note = L-ornithine; SITE 13: note = alpha-methyl-leucine; SITE 17: note = Lysine is chemically modified through conjugation of the epsilon-amino group of the Lysine side chain with (2-[2-(2-Amino-ethoxy)-ethoxy]-acetyl)2-(gamma-Glu)) [Example 156]										3.37	695	3.62	1520	0.208	25.8
YXQGTFTSDFSXXLDKKAQXAFIEYLLEAGPSSGAPPPSGE (synthetic construct; SITE 2: note = 2-Aminoisobutyric Acid; SITE 12: note = L-ornithine; SITE 13: note = alpha-methyl-leucine; SITE 17: note = Lysine is chemically modified through conjugation of the epsilon-amino group of the Lysine side chain with (2-[2-(2-Amino-ethoxy)-ethoxy]-acetyl)2-(gamma-Glu)) [Example 128]	3.5	679	6.76	1090	0.307	24.3									
YXQGTFTSDFSRXLDKKAQXAFIEYLLEGGESSGAPPPSGS (synthetic construct; SITE 2: note = 2-Aminoisobutyric Acid; SITE 13: note = alpha-methyl-leucine; SITE 17: note = Lysine is chemically modified through conjugation of the epsilon-amino group of the Lysine side chain with (2-[2-(2-Amino-ethoxy)-ethoxy]-acetyl)2-(gamma-Glu)-CO-(CH2 )16-CO2H; SITE 20:) [Example 149]										3.85	801	12.6	1420	0.46	44.9
YXQGTFTSDFSKXLDKKAQXAFIEWLLAGGPSSGEPPPSEG (synthetic construct; SITE 2: note = 2-Aminoisobutyric Acid; SITE 13: note = alpha-methyl-leucine; SITE 17: note = Lysine is chemically modified through conjugation of the epsilon-amino group of the Lysine side chain with (2-[2-(2-Amino-ethoxy)-ethoxy]-acetyl)-(gamma-Glu)-CO-(CH2) 18-CO2H; SITE 20: n) [Example 20]	2.45		15.4		0.381		326	587	42.3						
YXQGTFTSDFSKXLDKKAQXAFIEYLLEGGPSSGAPPPSGS (synthetic construct; SITE 2: note = 2-Aminoisobutyric Acid; SITE 13: note = alpha-methyl-leucine; SITE 17: note = Lysine is chemically modified through conjugation of the epsilon-amino group of the Lysine side chain with (2-[2-(2-Amino-ethoxy)-ethoxy]-acetyl)2-(gamma-Glu)-CO-(CH2 )16-CO2H; SITE 20:) [Example 142]	4.37	391	3.49	1230	0.216	14.1									
YXQGTFTSDFSXXLDKKAQXAFIEYLLEAGPSSGEPPPSGE (synthetic construct; SITE 2: note = 2-Aminoisobutyric Acid; SITE 12: note = L-ornithine; SITE 13: note = alpha-methyl-leucine; SITE 17: note = Lysine is chemically modified through conjugation of the epsilon-amino group of the Lysine side chain with (2-[2-(2-Amino-ethoxy)-ethoxy]-acetyl)-(gamma-Glu)) [Example 135]	3.3	472	2.53	557	0.246	23.4									
YXQGTFTSDFSXXLDKKAQXAFIEYLLEGGPSSGAPPPEGS (synthetic construct; SITE 2: note = 2-Aminoisobutyric Acid; SITE 12: note = L-ornithine; SITE 13: note = alpha-methyl-leucine; SITE 17: note = Lysine is chemically modified through conjugation of the epsilon-amino group of the Lysine side chain with (2-[2-(2-Amino-ethoxy)-ethoxy]-acetyl)-(gamma-Glu)) [Example 130]	4.29	865	3.74	1080	0.411	60.5									
